# Tests used:
# [1] = In vivo metabolic stability (urine, radio-HPLC); settings: ~37 MBq i.v., mouse urine collected p.i. (2 h, b63; 0.5 h for ^99mTc-H10F in Fig. S3)
# [2] = Dosimetry estimation (OLINDA/EXM); design: species or system human; settings: for effective radiation dose to the body: 11.1 MBq/kg
# Description: The dosimetry calculation was performed according to the European Association of Nuclear Medicine Dosimetry Guidance and calculated using OLINDA/EXM (version 1.1; Vanderbilt University). The radiation effective dose (mSv/MBq) of the main organs of the human body was estimated from the biodistribution data of the SK-BR-3 tumor models (Additional file 1: Table S1).
# The radiation effective dose (mSv/MBq) of the main organs of the human body was estimated from the biodistribution data of the SK-BR-3 tumor model (Table S1).
# [3] = radio-HPLC (Fig. 1B)
# [4] = 1.85 MBq i.v., blood 1-240 min p.i., γ-counter, seven mice, fitted in Prism 7.0
# Description: Blood was drawn through the orbit of the mouse at 1, 3, 8, 15, 30, 60, 90, 120, 180, and 240 min p.i. The radioactivity was counted in a γ-counter, and the percentage injected dose per gram of blood (%ID/g) at each time point was calculated. The slow half-life and fast half-life were analyzed and calculated by Prism 7.0.
# clinical = settings: female, human, in vivo, iv, 11.1 MBq per kilogram body weight, total radioactivity, mean ± SD
# Description: (§1) The wrist or elbow on the same side as the healthy breast was selected for injection. […] On PET images, the volumes of interest (VOIs) were drawn over tumors using a 40% threshold, and the software automatically obtained the radioactivity concentration and the maximum and the mean standardized uptake values (SUVmax and SUVmean, respectively). T/B ratios were calculated from SUVmean values for further analysis. The contralateral breast tissue was considered the background for calculations. For semiquantitative analyses of SPECT images, the same VOI method as above was adopted to obtain the maximum and the average count values (Countsmax and Countsavg, respectively) of the breast tumors. The Countsavg value was compared between the tumor region and the contralateral region to obtain the T/B ratio. Calculations were performed using SPSS 23.0 software (IBM SPSS, Chicago, IL, USA) and GraphPad Prism 8 (GraphPad Software, San Diego, CA 92,108). After surgery, HER2 expression status was evaluated by IHC in tumor pathological sections of all 34 patients. For patients with an IHC score of HER2 (2 +), FISH was further performed.
# (§2) Quantitative data were expressed as the mean ± SD. Statistical analysis of image parameters and biodistribution was performed with Student’s t test in Prism 7.0 (GraphPad Software, Inc., USA). P < 0.05 was considered statistically significant. Correlation analysis of the SUV data of clinical images and the IHC results was performed with SPSS Statistics 23.0 software (IBM SPSS, USA). The correlation between the SPECT T/B ratio and HER2 status was evaluated by Wilcoxon’s rank sum test. Spearman’s rank correlation analysis was performed on the SPECT T/B ratio and the immunoreactivity score. ROC curve analysis was performed to determine an optimal cutoff value for detecting HER2-positive (2 + , 3 +) breast cancer and to compare the diagnostic performance of different methods.
# [5] = system: HER2 expression in breast tumors
# Description: as §1, §2
# in vivo [6] = settings: female, NOD SCID, mouse, tumor (MCF7 xenograft), 0.37 MBq, total radioactivity
# Description: (§3) The animals were randomly chosen for in vivo assays when the tumor size reached 100–150 mm^3 (1–2 weeks after inoculation).
# (§4) Each mouse was injected with 0.37 MBq (~ 0.03 µg) of tracer to evaluate the distribution of the probe in tumors and major organs (4 mice/group). The mice were sacrificed and dissected at 0.5, 1 and 2 h p.i. Blood, tumor, liver, kidney and other major organs were collected and weighed, and their radioactivity was counted in a Wallac 1480 γ-counter (Perkin-Elmer, Waltham, MA). […] All biodistribution data are presented as the percentage of injected dose per gram of tissue (%ID/g).
# in vivo [7] = settings: female, NOD SCID, mouse, tumor (SK-BR-3 xenograft), iv, 0.37 MBq, total radioactivity
# Description: as §3, §4
# [8] = system: SK-BR-3 tumors (HER2-positive); test: Small-animal nanoScan SPECT/CT imaging in the SK-BR-3 tumor model; type: in vivo, female NOD SCID mice
# Description: At 0.5, 1 and 2 h p.i., the mice were anesthetized by inhalation of 2% isoflurane and imaged using a nanoScan SPECT/CT system (Mediso Inc., Hungary) following a standard protocol. Briefly, the small-animal SPECT images were acquired with the technetium-99 m parameters (peak 140 keV with 20% width, frame time 25 s), and CT images were acquired with default settings (50 kVp, 0.67 mA, and rotation 210°, exposure time 300 ms). All SPECT/CT images were reconstructed and further analyzed by Fusion software (Mediso Inc., Hungary), including drawing volumes of interest on tumors and major organs as well as calculating the tumor uptake (%ID/cc) accordingly. […] Small-animal imaging of the monomer tracer ^99mTc-HP-rk was also conducted as a control.
# in vivo [9] = settings: female, NOD SCID, mouse, tumor (MDA-MB-468 xenograft), 0.37 MBq, total radioactivity
# Description: as §3, §4
# [10] = 74 MBq i.v., n = 5
# Description: Ten 4-week-old female ICR mice were randomly divided into the experimental and control groups. The mice were numbered, weighed and photographed. […] The mice in the control group were injected with the same volume of saline. After 120 h, the mice were photographed again, their body weight was recorded, and the behavioral differences were observed. After the mice were sacrificed, they were dissected to observe the morphological differences in the organs.
# [11] = system: SK-BR-3 tumor (HER2-positive); settings: 0.5, 1 and 2 h p.i.; 0.37 MBq i.v.; 4 mice/group
# Description: as §3, §4
# [12] = Female, OLINDA/EXM 1.1, from mouse SK-BR-3 biodistribution
# [13] = Male, OLINDA/EXM 1.1, from mouse SK-BR-3 biodistribution
structure (smiles),measurement,setting,value
"CC(C)C[C@@H](NC(=O)[C@@H](CCCNC(=N)N)NC(=O)[C@@H](CC(C)C)NC(=O)[C@@H](CCC(=O)O)NC(=O)[C@@H](Cc1c[nH]c2ccccc12)NC(=O)[C@@H](CC(N)=O)NC(=O)[C@@H](CCCNC(=N)N)NC(=O)CCCCCCCNC(=O)CC[C@H](NC(=O)CCOCCOCCOCCOCCNC(=O)c1ccc(NN=Cc2ccccc2S(=O)(=O)O)nc1)C(=O)NCCCCCCCC(=O)N[C@H](CCCNC(=N)N)C(=O)N[C@H](CC(N)=O)C(=O)N[C@H](Cc1c[nH]c2ccccc12)C(=O)N[C@H](CCC(=O)O)C(=O)N[C@H](CC(C)C)C(=O)N[C@H](CCCNC(=N)N)C(=O)N[C@H](CC(C)C)C(=O)N[C@H](CCCCN)C(=O)O)C(=O)N[C@H](CCCCN)C(=O)O [^99mTc-HP-Ark2, metal not drawn]",in vivo metabolic stability,[1],excellent in vitro and in vivo stability
same,effective radiation dose to the body,[2]; 50 kg females,~5.72 mSv
same,effective radiation dose to the body,[2]; 65 kg males,approximately 6.62 mSv
same,"Effective Dose Equivalent, Adrenals",[2]; [12],5.36E-04 mSv/MBq
same,"Effective Dose Equivalent, Brain",[2]; [12],0.00E+00 mSv/MBq
same,"Effective Dose Equivalent, Breasts",[2]; [12],4.44E-05 mSv/MBq
same,"Effective Dose Equivalent, Gallbladder Wall",[2]; [12],2.60E-04 mSv/MBq
same,"Effective Dose Equivalent, Heart Wall",[2]; [12],0.00E+00 mSv/MBq
same,"Effective Dose Equivalent, Kidneys",[2]; [12],7.87E-03 mSv/MBq
same,"Effective Dose Equivalent, LLI Wall",[2]; [12],0.00E+00 mSv/MBq
same,"Effective Dose Equivalent, Liver",[2]; [12],0.00E+00 mSv/MBq
same,"Effective Dose Equivalent, Lungs",[2]; [12],1.90E-04 mSv/MBq
same,"Effective Dose Equivalent, Muscle",[2]; [12],0.00E+00 mSv/MBq
same,"Effective Dose Equivalent, Osteogenic Cells",[2]; [12],6.07E-05 mSv/MBq
same,"Effective Dose Equivalent, Ovaries",[2]; [12],2.49E-04 mSv/MBq
same,"Effective Dose Equivalent, Pancreas",[2]; [12],3.43E-04 mSv/MBq
same,"Effective Dose Equivalent, Red Marrow",[2]; [12],2.27E-04 mSv/MBq
same,"Effective Dose Equivalent, Skin",[2]; [12],0.00E+00 mSv/MBq
same,"Effective Dose Equivalent, Small Intestine",[2]; [12],0.00E+00 mSv/MBq
same,"Effective Dose Equivalent, Spleen",[2]; [12],4.89E-04 mSv/MBq
same,"Effective Dose Equivalent, Stomach Wall",[2]; [12],0.00E+00 mSv/MBq
same,"Effective Dose Equivalent, Thymus",[2]; [12],0.00E+00 mSv/MBq
same,"Effective Dose Equivalent, Thyroid",[2]; [12],2.78E-06 mSv/MBq
same,"Effective Dose Equivalent, ULI Wall",[2]; [12],0.00E+00 mSv/MBq
same,"Effective Dose Equivalent, Urinary Bladder Wall",[2]; [12],0.00E+00 mSv/MBq
same,"Effective Dose Equivalent, Uterus",[2]; [12],0.00E+00 mSv/MBq
same,"Effective Dose Equivalent, Adrenals",[2]; [13],4.04E-04 mSv/MBq
same,"Effective Dose Equivalent, Brain",[2]; [13],0.00E+00 mSv/MBq
same,"Effective Dose Equivalent, Breasts",[2]; [13],3.64E-05 mSv/MBq
same,"Effective Dose Equivalent, Gallbladder Wall",[2]; [13],2.31E-04 mSv/MBq
same,"Effective Dose Equivalent, Heart Wall",[2]; [13],0.00E+00 mSv/MBq
same,"Effective Dose Equivalent, Kidneys",[2]; [13],7.26E-03 mSv/MBq
same,"Effective Dose Equivalent, LLI Wall",[2]; [13],0.00E+00 mSv/MBq
same,"Effective Dose Equivalent, Liver",[2]; [13],0.00E+00 mSv/MBq
same,"Effective Dose Equivalent, Lungs",[2]; [13],1.38E-04 mSv/MBq
same,"Effective Dose Equivalent, Muscle",[2]; [13],0.00E+00 mSv/MBq
same,"Effective Dose Equivalent, Osteogenic Cells",[2]; [13],4.73E-05 mSv/MBq
same,"Effective Dose Equivalent, Pancreas",[2]; [13],2.81E-04 mSv/MBq
same,"Effective Dose Equivalent, Red Marrow",[2]; [13],1.94E-04 mSv/MBq
same,"Effective Dose Equivalent, Skin",[2]; [13],0.00E+00 mSv/MBq
same,"Effective Dose Equivalent, Small Intestine",[2]; [13],0.00E+00 mSv/MBq
same,"Effective Dose Equivalent, Spleen",[2]; [13],3.96E-04 mSv/MBq
same,"Effective Dose Equivalent, Stomach Wall",[2]; [13],0.00E+00 mSv/MBq
same,"Effective Dose Equivalent, Testes",[2]; [13],0.00E+00 mSv/MBq
same,"Effective Dose Equivalent, Thymus",[2]; [13],0.00E+00 mSv/MBq
same,"Effective Dose Equivalent, Thyroid",[2]; [13],2.27E-06 mSv/MBq
same,"Effective Dose Equivalent, ULI Wall",[2]; [13],0.00E+00 mSv/MBq
same,"Effective Dose Equivalent, Urinary Bladder Wall",[2]; [13],0.00E+00 mSv/MBq
same,"Effective Dose Equivalent, Uterus",[2]; [13],0.00E+00 mSv/MBq
same,in vitro stability,[3],excellent in vitro and in vivo stability
same,fast half-life in blood,[4],3.12 min
same,slow half-life in blood,[4],32.45 min
same,tissue to tissue ratio at 0.5 h,"clinical; T/B ratio of HER2-negative tumors, IHC (2+) plus FISH+ or IHC (3+) criterion, n = 24",1.54 ± 1.03
same,tissue to tissue ratio at 0.5 h,"clinical; T/B ratio of HER2-negative tumors, negative = IHC (0/1+), n = 17",1.16 ± 0.29
same,tissue to tissue ratio at 0.5 h,"clinical; T/B ratio of HER2-positive tumors, positive = IHC (2+) or (3+), n = 19",2.49 ± 1.13
same,tissue to tissue ratio at 0.5 h,"clinical; T/B ratio of HER2-positive tumors, positive = IHC (2+) plus FISH+ or IHC (3+), n = 12",2.5 ± 0.88
same,adverse events related to tracer administration,"[5]; 34 patients, ~11.1 MBq/kg i.v.",No adverse events
same,detection of metastatic lymph nodes,"[5]; patients with HER2-positive tumors and ipsilateral lymph node metastases (Nos. 4, 5, 7, 15, 24, 29)",all 6 patients
same,kidney uptake in patients,"[5]; quantified biodistribution from SPECT/CT, n = 34 (Fig. S10)",high uptake
same,tissue uptake at 0.5 h,in vivo [6],1.44 ± 0.08 %ID/g
same,tissue uptake at 0.5 h,in vivo [7],3.99 ± 0.15 %ID/g
same,imaging intensity in tumors compared with monomer tracer,"[8]; SK-BR-3 model, 0.5 h p.i.",stronger than that of ^99mTc-HP-rk
same,tumor uptake on imaging with coinjected cold rk peptide,"[8]; blocking dose 25 mg/kg rk, 0.5 h p.i.",significantly blocked tumor uptake
same,tumor uptake on imaging with coinjected cold trastuzumab,"[8]; blocking dose 30 mg/kg trastuzumab, 0.5 h p.i.",did not block tumor uptake
same,tumor visualization by SPECT/CT,"[8]; ~37 MBq i.v., 0.5, 1 and 2 h p.i., subcutaneous or in situ, tumors as small as ~20 mm^3",clearly visualized
same,tissue uptake at 0.5 h,in vivo [9],1.08 ± 0.06 %ID/g
same,body weight after high-dose injection,[10]; 120 h,did not decrease
same,organ morphology after dissection,[10]; 120 h,no abnormal organs
same,behavior after high-dose injection,[10]; 120 h after injection,no abnormal behavior
same,tumor uptake compared with other organs,[11],higher tumor uptake than uptake in other organs (except for kidneys)
